# From US20230414619
# B1: HA-tagged G9a (protein)
# chain: MAAAAGAAAAAAAEGEAPAEMGALLLEKETRGATERVHGSLGDTPRSEETLPKATPDSLEPAGPSSPASVTVTVGDEGADTPVGATPLIGDESENLEGDGDLRGGRILLGHATKSFPSSPSKGGSCPSRAKMSMTGAGKSPPSVQSLAMRLLSMPGAQGAAAAGSEPPPATTSPEGQPKVHRARKTMSKPGNGQPPVPEKRPPEIQHFRMSDDVHSLGKVTSDLAKRRKLNSGGGLSEELGSARRSGEVTLTKGDPGSLEEWETVVGDDFSLYYDSYSVDERVDSDSKSEVEALTEQLSEEEEEEEEEEEEEEEEEEEEEEEEDEESGNQSDRSGSSGRRKAKKKWRKDSPWVKPSRKRRKREPPRAKEPRGVNGVGSSGPSEYMEVPLGSLELPSEGTLSPNHAGVSNDTSSLETERGFEELPLCSCRMEAPKIDRISERAGHKCMATESVDGELSGCNAAILKRETMRPSSRVALMVLCETHRARMVKHHCCPGCGYFCTAGTFLECHPDFRVAHRFHKACVSQLNGMVFCPHCGEDASEAQEVTIPRGDGVTPPAGTAAPAPPPLSQDVPGRADTSQPSARMRGHGEPRRPPCDPLADTIDSSGPSLTLPNGGCLSAVGLPLGPGREALEKALVIQESERRKKLRFHPRQLYLSVKQGELQKVILMLLDNLDPNFQSDQQSKRTPLHAAAQKGSVEICHVLLQAGANINAVDKQQRTPLMEAVVNNHLEVARYMVQRGGCVYSKEEDGSTCLHHAAKIGNLEMVSLLLSTGQVDVNAQDSGGWTPIIWAAEHKHIEVIRMLLTRGADVTLTDNEENICLHWASFTGSAAIAEVLLNARCDLHAVNYHGDTPLHIAARESYHDCVLLFLSRGANPELRNKEGDTAWDLTPERSDVWFALQLNRKLRLGVGNRAIRTEKIICRDVARGYENVPIPCVNGVDGEPCPEDYKYISENCETSTMNIDRNITHLQHCTCVDDCSSSNCLCGQLSIRCWYDKDGRLLQEFNKIEPPLIFECNQACSCWRNCKNRVVQSGIKVRLQLYRTAKMGWGVRALQTIPQGTFICEYVGELISDAEADVREDDSYLFDLDNKDGEVYCIDARYYGNISRFINHLCDPNIIPVRVFMLHQDLRFPRIAFFSSRDIRTGEELGFDYGDRFWDIKSKYFTCQCGSEKCKHSAEAIALEQSRLARLDPHPELLPELGSLPPVNT
# Molecular target: Flag-tagged METTL3, Q86U44
# Sequence (Q86U44 whole entry): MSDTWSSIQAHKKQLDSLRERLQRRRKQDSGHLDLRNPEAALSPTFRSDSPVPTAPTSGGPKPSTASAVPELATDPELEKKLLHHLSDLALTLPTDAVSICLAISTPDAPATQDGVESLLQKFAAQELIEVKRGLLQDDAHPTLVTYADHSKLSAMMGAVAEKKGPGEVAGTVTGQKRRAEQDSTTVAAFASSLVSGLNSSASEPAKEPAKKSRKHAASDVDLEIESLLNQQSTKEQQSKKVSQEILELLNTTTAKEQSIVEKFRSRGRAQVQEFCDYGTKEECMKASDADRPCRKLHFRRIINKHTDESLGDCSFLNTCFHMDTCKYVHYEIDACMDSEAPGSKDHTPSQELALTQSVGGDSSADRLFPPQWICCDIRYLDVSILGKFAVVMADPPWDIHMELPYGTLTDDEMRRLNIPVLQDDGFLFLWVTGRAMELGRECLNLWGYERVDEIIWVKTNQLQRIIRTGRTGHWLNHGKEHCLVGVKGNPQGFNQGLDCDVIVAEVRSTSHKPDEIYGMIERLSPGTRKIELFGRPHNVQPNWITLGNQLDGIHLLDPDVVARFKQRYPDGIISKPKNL
protein,measurement,value
B1,LC-MS/MS of tryptic digests of Flag-METTL3: mono- or di-methyl-lysine (Kme) sites,four mono- or di-methyl-lysine (Kme) sites in the C-terminus of METTL3
same,"lysine methylation of immunoprecipitated Flag-METTL3, immunoblotting with an anti-mono- or di-methylysine antibody",METTL3 was methylated
